Experimental data: article PMC2978023
pKd: −log10 of the molar value.

Key:
[1] = molecular target: recombinant purified β2 integrin subunit (UniProt P05107); test: ELISA
[2] = molecular target: recombinant purified integrin αMβ2 (UniProt P11215); test: ELISA
[3] = molecular target: recombinant purified αM integrin subunit (UniProt P11215); test: ELISA
αM/αLβ2 chimera = αM/αLβ2 chimera (UniProt P05107); test: flow cytometry on cells
[4] = molecular target: wild-type αMβ2 on transfected K562 cells (UniProt P11215); test: flow cytometry on cells
αM(1119Δ)β2 = αM(1119Δ)β2 (UniProt P11215); test: flow cytometry on cells
αMβ2(728Δ) = αMβ2(728Δ) (UniProt P11215); test: flow cytometry on cells
[5] = molecular target: integrin αMβ2 on human PMNs (human (endogenous in PMNs)) (UniProt P11215)

Ang(1–4), angiostatin composed of four kringle domains of Plg, sequence (P00747 20-810): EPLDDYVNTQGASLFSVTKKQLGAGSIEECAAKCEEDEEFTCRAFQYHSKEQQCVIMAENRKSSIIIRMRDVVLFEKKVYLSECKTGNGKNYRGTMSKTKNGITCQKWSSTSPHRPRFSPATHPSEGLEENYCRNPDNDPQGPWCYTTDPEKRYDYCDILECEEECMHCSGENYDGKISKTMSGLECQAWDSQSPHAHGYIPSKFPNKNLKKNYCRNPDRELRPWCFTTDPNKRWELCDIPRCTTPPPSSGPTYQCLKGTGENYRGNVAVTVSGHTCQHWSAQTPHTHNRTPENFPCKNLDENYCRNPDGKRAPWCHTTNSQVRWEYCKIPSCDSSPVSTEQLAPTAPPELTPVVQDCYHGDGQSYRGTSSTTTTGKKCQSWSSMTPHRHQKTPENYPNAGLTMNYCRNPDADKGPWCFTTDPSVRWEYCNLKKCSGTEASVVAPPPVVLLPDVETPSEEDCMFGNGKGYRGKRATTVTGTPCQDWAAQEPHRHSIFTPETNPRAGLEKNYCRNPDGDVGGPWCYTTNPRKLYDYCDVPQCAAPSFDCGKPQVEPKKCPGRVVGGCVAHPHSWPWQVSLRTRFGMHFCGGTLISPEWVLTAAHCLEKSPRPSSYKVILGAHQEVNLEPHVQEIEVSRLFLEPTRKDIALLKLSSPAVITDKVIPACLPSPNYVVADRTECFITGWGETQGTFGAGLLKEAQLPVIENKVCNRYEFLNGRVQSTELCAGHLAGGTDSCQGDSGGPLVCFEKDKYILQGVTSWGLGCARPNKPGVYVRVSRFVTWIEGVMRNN

pKd [1] | pKd [2] | pKd [3] | MFI of bound ligand (αM/αLβ2 chimera) [MFI] | MFI of bound ligand [4] [MFI] | MFI of bound ligand (αM(1119Δ)β2) [MFI] | MFI of bound ligand (αMβ2(728Δ)) [MFI] | PMN early/late apoptosis (% annexin V+ cells), 16 h, Plg 1 μM with NIF (50 nM) [5] [%] | Substance
< 4.00 | 6.30 | 6.40 |  |  |  |  |  | Ang(1–4), angiostatin composed of four kringle domains of Plg (from UniProt P00747 20-810) (domain or fragment)
 |  |  | 129 |  |  |  |  | human fibrinogen (from UniProt P02671-2 20-644; P02675 31-491; P02679-2 27-437) (complex)
6.30 |  | 7.00 | 135 | 130 | 145 | 152 | 90 | plasminogen (Glutamic Plg) (ligand)
